Data reported in patent US11879134.

Legend:
ThermoCas9 = assay: cell_activity; conditions: PAM NNNNCNAA; no cell killing observed
[1] = system: Type I-B Cas complex (Clo1313_2969-2976; Cas3, Cas5, Cas8, Cas6, DevR) (Clostridium thermocellum); assay: cell_activity

## GCAUAUUUGUUCUGGUCAAG / GCATATTTGTTCTGGTCAAG / CTTGACCAGAACAAATATGC [ThermoCas9 sgRNA#1 spacer ; pyrF site, ThermoCas9 #1]
ThermoCas9
  activity (% cell killing): 0

## UGAGAUUGUUGCGGAGUAUGUUGAAUCAUGGGGUGAA / TGAGATTGTTGCGGAGTATGTTGAATCATGGGGTGAA / TTCACCCCATGATTCAACATACTCCGCAACAATCTCA [Type I-B pyrF target spacer ; pyrF site, Type I-B, PAM TTA]
[1]; PAM 5'-TTA, strain LL1586, chromosomal pyrF, 65.8% with native cas promoter
  activity (% cell killing): 99.8

## CUUGAAGGCAUGAGGGUGUUUUAUGAAACUUGCAAAU / CTTGAAGGCATGAGGGTGTTTTATGAAACTTGCAAAT / ATTTGCAAGTTTCATAAAACACCCTCATGCCTTCAAG
[1]; no-PAM (GGC) control, target spacer gives 7 CFU/ug
  activity: 18000 CFU/µg DNA

## AUAAUGACAUUUAUGGUACUGUUGUGGUAAUAGACGA / CAGTTAATAATGACATTTATGGTACTGTTGTGGTAATAGACGA / TCGTCTATTACCACAACAGTACCATAAATGTCATTATTAACTG
[1]; PAM 5'-CAGTTA, plasmid interference, strong spacer promoter, spacer sequence from Table 1 pTY series, scale: fold decrease in transformation efficiency
  activity: 10
